# Reference: the nanobody polyreactivity screen of Harvey et al. (2022)
# Assay: yeast display, Sf9 membrane polyspecificity reagent, FACS + sequencing; frameworks hold sequencing errors
# Method in brief: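 After 36–48 hours of galactose induction, yeast (Saccharomyces cerevisiae BJ5465) displaying a synthetic nanobody library were stained at 4 °C for 1 hour with 10% biotinylated, detergent-solubilized Sf9 membrane reagent. Streptavidin microbeads enriched the stained cells before FACS sorting into low and high (top ~1%) gates on anti-HA and streptavidin fluorescence. Each clone's polyreactivity label reflects its gate of origin.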
row,Sequence,polyreactivity (PSR sort gate)
1,QVQLVESGGGLVQAGGSLRLSCAASGSIFDPYAMGWYRQAPGKERELVAAITASGSSTYYADSVKGRFTISRDNAKNTVYLQMNSLIPEDTAVYYCAADRANWEYLLSCLGYDYWGQGTQVTVSS,low polyreactivity
2,QVQLVESGGGLVQAGGSLRLSCAASGSIFDRYAMGWYRQAPGKERELVAAITGSGGSTYYADSVKGRFTISRDNAKNTVYLQMNSLKPEDTAVYYCNARARGAYVRYGYWGQGTQVTVSS,high polyreactivity
3,QVQLVESGGGLVQAGGSLRLSCAASGSIFDSNAKGWYRQAPGKERELVAAITGSGSTNYADSVKGRFTFSRDNAKNTVYLQMNSLKPEDTAVYYCNAQAPYTEFDYWGQGTQVTVSS,low polyreactivity
4,QVQLVESGGGLVQAGGSLRLSCAASGSIFDSNAMGWYRQAPGKERELVAAIDDSGATTYYADSVKGRFTISPDNAKNTVYLQLNSLKPEDTAVYYCAAETYTGSLAYYREYYYWGQGTQVTVSS,low polyreactivity
5,QVQLVESGGGLVQAGGSLRLSCAASGSIFDSNNMVWYRQAPGKERELVAGISTGGSTNYADSVKGRFTISRDNAKNTVYLQMNSLKPEDTAVYYCNADLGSSYDWGQGTQVTVSS,low polyreactivity
6,QVQLVESGGGLVQAGGSLRLSCAASGSIFDSYAMGWYRQAPGKERELVASISRRGGTTYYADSVKGRFTISRDNAKNTGYLQMNSLKPEDTAVYYCAKVGSLYQPSRYDYWGQGTQVTVTS,high polyreactivity
7,QVQLVESGGGLVQAGGSLRLSCAASGSIFDTYAMGWYRQAPGKEREVVAAITWSGSSTYYADSVKGRFTISRDNAKNTVYLQMNSLKPEDTAVYYCAAEVSGKYFLFDYWGQGTQVTVSS,high polyreactivity
8,QVQLVESGGGLVQAGGSLRLSCAASGSIFDVNAMGWYRQAPGKERELVAAISDSGGSTFYADSVKGRFTISRDNAKNTVYLQMNTLKPEDTGVYYCNTEDFFNVPEMDSWGQGTQVTVSS,low polyreactivity
9,QVQLVESGGGLVQAGGSLRLSCAASGSIFDVYAMGWYRQAPGKERELVAAINGGGSTYYADSVKGRFTISRDNAKNTVYLQMNSLKPEDTAVYYCAADRYYYAYRYYPSGYWGQGTQVTVSS,low polyreactivity
10,QVQLVESGGGLVQAGGSLRLSCAASGSIFDVYAMGWYRQAPGKERELVAAIRTRGGSTYYADSVKGRFTISRDNAKNTVYLQMNSLKPEDTAVYYCAAGGETVIPWFDDYYWGQGTQVTVSS,low polyreactivity
11,QVQLVESGGGLVQAGGSLRLSCAASGSIFDVYAMGWYRQAPGKERELVAGISRSGGSTYYADSVKGRFTISRDNAKNTVYLQMNSLKPEDTAVYYCAARYTYYRGRYDYWGQGTQVTVSS,low polyreactivity
12,QVQLVESGGGLVQAGGSLRLSCAASGSIFDVYAMGWYRQAPGKERELVATISNSAGSTYYADSVKGRFTISRDNAKKTVYLQMNSLKPEDTAVYYCAAVVLYFEEYDYWGQGTQVTVSS,low polyreactivity
13,QVQLVESGGGLVQAGGSLRLSCAASGSIFDVYAMGWYRQAPGKERELVATMSNSAGSTYYADSVKGRFTISRDNAKYTVYLQMNSLKPEDTAVYYCAAVVVYFDEYDYWGQGTQVTVSS,low polyreactivity
14,QVQLVESGGGLVQAGGSLRLSCAASGSIFDVYTMGWDREAPGKERELVAAINTGGGSTYYADSVKGRFTISRDNAKNTVYLQMNSLKPEDTAVYYCAASVYHYGPLYYWGQGTQVTVSS,low polyreactivity
15,QVQLVESGGGLVQAGGSLRLSCAASGSIFDWYDMGWYRQAPRKEGELVAAISSGDSSYYADSVKGRFTISRDNAKNTVYFQIISLKPEDTAVYFCAAVTKLSGIRYNYWGQGTQLTVSS,low polyreactivity
16,QVQLVESGGGLVQAGGSLRLSCAASGSIFDYNAMGWYREAAGKEREFVASITYSGGSTNYADSVKGRFTISRDNAKNTVYLQMNSLKPEDTAVYYCSKTIGIVWIYYPGARYEDWGQGTQVTVSS,low polyreactivity
17,QVQLVESGGGLVQAGGSLRLSCAASGSIFDYNAMGWYRQATGKERELVAAISSDGSTYYADSVKGRFTISRDNAKNSVYLQMNSLKPEDTAVYYCAADSVYSWSDYWGQGTQVTVSS,low polyreactivity
18,QVQLVESGGGLVQAGGSLRLSCAASGSIFDYNCMGWYRQAPGKESELVATITLSTARTYYADSVKGRFTISRDNAKNTVYLQMNRLKPEDTAVYYCATRYPKFRRRNYWGQGTQVTVSS,high polyreactivity
19,QVQLVESGGGLVQAGGSLRLSCAASGSIFDYYTMGWYRQAPGKERELVASITQSGGSTYYADSVKGRFTISRDNAKNTVYLQMNSLIPEDTAVYYCAADFSIVKMDYWGQGTQVTVSS,low polyreactivity
20,QVQLVESGGGLVQAGGSLRLSCAASGSIFEAYAMGWYRQAPGKERELVAAITQSGGSTYYADSVKGRFTISRDNAKNTVYLQMNSLKPEDTAVYYCAADFKYRGPSGDYDYWGQGTQVTVSS,low polyreactivity
21,QVQLVESGGGLVQAGGSLRLSCAASGSIFEENAMGWYRQAPGKERELVAAITIGGRTNYADSVKGRFTISRDNAKNTVYLQMNSLKPEDTAVYYCAADLSSNKFWRFWTRYYYWGQGTQVTVSS,low polyreactivity
22,QVQLVESGGGLVQAGGSLRLSCAASGSIFEGNAMGWSRQAPGKERELVAAITGRGGSTYYADSVKGRFTISRDNAKNTVYLQMNSLKPEDTAVYYCAARVRRLSSIIYYYWGQGTQVTVSS,high polyreactivity

row,Sequence,polyreactivity (PSR sort gate)
1,QVQLVESGGGLVQAGGSLRLSCAASGSIFEGNAMGWYRQAPGKERELVAAISRRGGRTYYADSVKGRFTISRDNAKNTVYLQMNSLKPEDTAVYYCNALYFRDGRYQTYSDKFDYWGQGTQVTVSS,high polyreactivity
2,QVQLVESGGGLVQAGGSLRLSCAASGSIFEHNSMGWYSQAPGKERELGAAITISGGGTYYADSVKGRFTISRDNAKNTVYLQMNSLKPEDTAVYYCNRDKPGLVFTSYNYSSSYDYWGPGTQVTVSS,low polyreactivity
3,QVQLVESGGGLVQAGGSLRLSCAASGSIFEKNAMGWYRQEPGKEWELFAAISSSGGRTNYADSVKGRFTISRDNAKNTVYLHMNSLKPEDTAVYYCAAYRRGHRYTGYEYWGQGTQVTVSS,high polyreactivity
4,QVQLVESGGGLVQAGGSLRLSCAASGSIFEKYAMGWYRQAPGKERELVAAISRGTNTKYADSVKGRFTISRDNAKNTVYLQMNSLKPEDTAVYNGAARYNTYRTRIYSMDYWGQGTQVTVSS,high polyreactivity
5,QVQLVESGGGLVQAGGSLRLSCAASGSIFELNAMGWYRQAPGKERELVAAITSSGSSTYYADSVKGRFTISRDNAKNTVYLQMNSLKPEDTAVYYCFRPHDYWGQGTQVTVTS,low polyreactivity
6,QVQLVESGGGLVQAGGSLRLSCAASGSIFEPNAMGWYRQAPGKERELVASITSGGTTYADSVKGRFTISRDNAKNTVYLQMNSLKPEDTAVYYCNARVKAFFDPSQYLYGHDYWGQGTQVTVSS,low polyreactivity
7,QVQLVESGGGLVQAGGSLRLSCAASGSIFEPYAMGWYRQAPGKERELVAAISSGTSTYYADSVKGRFTISRDNAKNTVYLQLNSLKPEDTAVYYCAAEEQIPWTNNAKYYYWGQGTQVTVSS,low polyreactivity
8,QVQLVESGGGLVQAGGSLRLSCAASGSIFESNAMGWYRQAPGKEREFVAAIDQNDGSTNYADSVKGRFTISRDNAKNTVYLQMNSLKPEDTAVYYCAKYWGYLGYYEFDYWGQGTQVTVSS,low polyreactivity
9,QVQLVESGGGLVQAGGSLRLSCAASGSIFESNGMGWYRPAPGKERELVASISNGDITYYADSVKGRFTISRDNAKNTVYLQMISVKPEYTAVYYCAATLYRNYVIFRYDYWGQGTQLTVSS,low polyreactivity
10,QVQLVESGGGLVQAGGSLRLSCAASGSIFEVYAMGWYRQAPGKERELVAAIDYSDGTTYYADSVKGRFTISRDNAKNTVYLQMNSLKPEDTAGYYCAADFPGQHYDYWGQGTQVTVSS,low polyreactivity
11,QVQLVESGGGLVQAGGSLRLSCAASGSIFEWYAMGLYRQAPGKETELVAAISSGGRTYYADSVKGRFTISRDNAKNTVYLQMNSLKPEDTAVYYCAGRDVDHVGGSKYYYWGQGTQVTVSS,high polyreactivity
12,QVQLVESGGGLVQAGGSLRLSCAASGSIFEWYAMGWYRQAPGKERELVAAIDISGGDTYYADSVKGRFTISHDNAKNNVYLQRNSLKPEDTAVYYCAATRPASYAAYDYWGQGTQVTVSS,high polyreactivity
13,QVQLVESGGGLVQAGGSLRLSCAASGSIFEWYAMGWYRQAPGKERELVADITYNGGSTYYADSVKGRFTISRDNAKNTVYLQMNSLKPEDTAVYYCAADYFVQVPDYYYASEYGYWGQATQVTVSS,low polyreactivity
14,QVQLVESGGGLVQAGGSLRLSCAASGSIFEWYAMGWYRQAPGKVRELVADITYNGGSTYYADSVKGRFTISRDNAKNTVYLQMNSLKPEDTAVYYCAADYFVQVPDYYYASEYGYWGQGTQVTVSS,low polyreactivity
15,QVQLVESGGGLVQAGGSLRLSCAASGSIFEYNAMGWYRQAPGKERELVAAITRGGNTYYADSVKGRFTISRDNAKNTVYLQMNSLKPEDTAVYYCAAVQWYGYPYYSWGQGTQVIVSS,low polyreactivity
16,QVQLVESGGGLVQAGGSLRLSCAASGSIFEYNDMGWYRQAPGKEREMVSAISWNGGSTYYADSVKGRFTISRDNAKNTVYLQMNSLKPEDTAVYYCAADGDPLWVASEYDSWGQGTQVTVSS,low polyreactivity
17,QVQLVESGGGLVQAGGSLRLSCAASGSIFEYYAMGWYRQAPGKEREFVAAISDNGDSTYYADSVKGRFTISRDNAKNTVYLQMNSLKPEDTAVYYCAVRKAYQYGFYYWGQGTQLTVSS,low polyreactivity
18,QVQLVESGGGLVQAGGSLRLSCAASGSIFEYYAMGWYRQAPGKERELVATITTRGGSTYYADSVKGRFTLSRDNAKNTVSLQMKCLKPEDTAVYYCNARAAYYGRGTLLRRNYWGQGTQVTVSS,high polyreactivity
19,QVQLVESGGGLVQAGGSLRLSCAASGSIFEYYTMGWYRQAPGKERELVAGISWSGGSTYYADSVKGRFTISRDNAKNTVYLQMNSLKPEDTAVYYCAAGRTGWYWDSGSTYRYGYGYWGQGTQVTVSS,high polyreactivity
20,QVQLVESGGGLVQAGGSLRLSCAASGSIFEYYTMGWYRQAPGKERELVATISRSADRTYYADSVKGRFTISRDNAKNTVYLQMNSLKPEDTAVDYCAKRYPRTTQWIYDYWGQGTQVTVSS,high polyreactivity
21,QVQLVESGGGLVQAGGSLRLSCAASGSIFFANAMGWYRPAPGKERELVATITSGGSTTYADSLKGRFTISRDNAKNTVYLQMNSLKPEDTAVYYCNADYDYGWVFYSNYDYWGQGTQVTVSS,low polyreactivity
